In patent US11673947B2, “Target tissue-specific antigen-binding molecule” (Chugai Seiyaku Kabushiki Kaisha, priority 2012, dated 2023):

Experiments:
[1] = target: T1, hIL-6R (Homo sapiens, UniProt P08887); assay: Phage ELISA, binding to hIL-6R in the presence or absence of SC; conditions: in the presence of SC
T1 sequence (P08887 20-355 limits assumed): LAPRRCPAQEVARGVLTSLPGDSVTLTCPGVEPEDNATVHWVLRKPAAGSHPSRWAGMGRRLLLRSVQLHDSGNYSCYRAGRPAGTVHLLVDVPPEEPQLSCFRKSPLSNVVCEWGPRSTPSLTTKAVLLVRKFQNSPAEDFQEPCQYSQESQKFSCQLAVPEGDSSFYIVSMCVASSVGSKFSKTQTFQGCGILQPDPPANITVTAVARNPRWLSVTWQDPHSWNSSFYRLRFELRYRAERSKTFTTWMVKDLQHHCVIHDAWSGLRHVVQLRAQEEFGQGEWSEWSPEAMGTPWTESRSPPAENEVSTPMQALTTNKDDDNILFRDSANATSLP
Method: Culture supernatants containing phages were collected according to a conventional method (Methods Mol. Biol. (2002) 178, 133-145) from single colonies of E. coli obtained as described in (14-2). Phages purified by the method described in (2-4) were subjected to ELISA by the following procedure. A StreptaWell 96 microtiter plate (Roche) was coated overnight with 100 μl of TBS containing biotin-labeled hIL-6R. After biotin-labeled hIL-6R was removed by washing each well of the plate with TBST, the wells were blocked with 250 μl of 2% skim milk/TBS for one hour or more. 2% skim milk/TBS was removed, and then the prepared, purified phages were added to each well. The plate was allowed to stand at room temperature for one hour to allow binding of antibody-displaying phages to biotin-labeled hIL-6R in each well in the presence or absence of SC. After washing with TBST or SC/TBST, an HRP-conjugated anti-M13 antibody (Amersham Pharmacia Biotech) diluted with TBS or SC/TBS was added to each well. The plate was incubated for one hour. Following wash with TBST or SC/TBST, the TMB single solution (ZYMED) was added to each well. The chromogenic reaction in the solution of each well was terminated by adding sulfuric acid. Then, the developed color was assessed by measuring absorbance at 450 nm.

[2] = target: T1, hIL-6R; assay: IgG ELISA, binding to hIL-6R in the presence or absence of each small molecule, amino acid or amino acid metabolite
Method: Three types of antibodies obtained: 6RNMSC1-2_F02 and 6RNMSC1-3_G02, and GC413 were subjected to ELISA under the nine conditions described in Table 3. Meanwhile, each small molecule was appropriately prepared at the concentrations shown in Table 3 using the buffers indicated in Table 19. The antigen used was biotin-labeled hIL-6R.
First, a StreptaWell 96 microtiter plate (Roche) was coated at room temperature for one hour or more with 100 μl of PBS containing biotin-labeled hIL-6R. After washing with Wash buffer to remove unbound biotin-labeled hIL-6R from the plate, each well was blocked for one hour or more with 250 μl of Blocking Buffer. After Blocking Buffer was removed from each well, the purified IgGs were prepared to 2.5 μg/ml in Sample Buffer containing small molecules at the final concentrations shown in Table 3, and each was aliquoted at 100 μl into the plate. The plate was allowed to stand at room temperature for one hour to allow binding of each IgG to biotin-labeled hIL-6R in each well. After washing with Wash Buffer containing small molecules at the final concentrations shown in Table 3, an HRP-conjugated anti-human IgG antibody (BIOSOURCE) diluted with Sample Buffer containing the same small molecules was added to each well. The plate was incubated for one hour. Following wash with Wash Buffer containing each small molecule, the TMB single solution (ZYMED) was added to each well. The chromogenic reaction in the solution of each well was terminated by adding sulfuric acid. Then, the developed color was assessed by measuring absorbance at 450 nm.
6RNMSC1-2_F02 described in Example 14, which has antigen-binding activity in the presence of kynurenine, and negative control GC413 were subjected to ELISA under the seven conditions described in Table 18. Meanwhile, each small molecule was appropriately prepared at the concentrations shown in Table 18 using the buffers indicated in Table 4. The antigen used was biotin-labeled hIL-6R. ELISA was carried out using the method described in Example 11.

B1: 6RNMSC1-2_F02: antibody that binds to hIL-6R in the presence of kynurenine; SEQ ID NOs: 86 and 87 (antibody, listed as Homo sapiens, V domains shown)
VH: QVQLVQSGAEVKKPGSSVKVSCKASGGTFSSYAISWVRQAPGQGLEWMGGIIPIFGTANYAQKFQGRVTITADESTSTAYMELSSLRSEDTAVYYCARDAPVVARPRGAFDIWGQGTMVTVSS
VL: DIVMTQTPLSSPVTLGQPASISCRSSQSLVHSDGNTYLSWLQQRPGQPPRLLIHEISNRFSGVPDRFSGSGAGTNFTLKISRVEAEDVGVYYCMQATQFPRTFGQGTKVEIK
- binding activity to hIL-6R in the presence of a small molecule cocktail (phage ELISA) [1]: have binding activity
- absorbance under condition 5 compared to condition 1 ([2]; Table 18: condition 5 (3-hydroxykynurenine solution)): the same high absorbance
- absorbance under condition 7 as compared to condition 1 ([2]; Table 18: condition 7 (absence of small molecules) vs condition 1 (kynurenine solution)): markedly lower
- absorbance under other conditions ([2]; Table 18: remaining conditions, incl. tryptophan): markedly lower
- absorbance under condition 7 compared to condition 8 ([2]; condition 7 (100 μM kynurenine)): the same
- absorbance under condition 9 as compared to condition 8 ([2]; condition 9 (in the absence of small molecules) vs condition 8 (complete small molecule cocktail solution)): markedly lower
- absorbance under other conditions ([2]; remaining conditions of Table 3): markedly lower
